Reference: US20100272689A1, “Protease Having Algicidal Activity, Gene Encoding the Same and Algicidal Formulation Comprising the Same” (KOREA OCEAN RESEARCH & DEVELOPMENT INSTITUTE, priority 2007, published 2010)

Experiments:
Assay in all cases: Algicidal activity by cell count after 24 hr (Lugol staining)
Type in all cases: cell-based
[1] = tested on: Alexandrium sp.; conditions: for Algicidal activity (degree of inhibition): 50 μl of protein (100 μg/ml), after 24 hr
Description: (§1) Organisms used as host for algicidal bacteria screen are Cochlodinium polykrikoides, Thalassiosira sp., Heterosigma akashiwo, Skeletonema costatum, Alexandrium sp., Gymnodium sp., Chaetoceros cuvisetus. Each algae cell was grown to log phase in F/2 broth (0.075 g NaNO3, 0.005 g NaH2PO4?H2O, 0.030 g Na2SiO3?9H2O, 1 ml F/2 trace metal solution, 1 ml F/2 vitamin solution and 1,000 ml aged seawater) [Stein, Handbook of phycological methods, Cambridge Univ. Press, 1973].
(§2) The cultured red tide organisms were diluted in F/2 broth to a final density of 0.05 (excitation wavelength=434 nm, emission wavelength=670 nm)on the fluorescent intensity using fluoro-spectrophotometer (Hitachi, Japan), and then 2.7 ml aliquots were dispensed into several test tubes (110 mm×10 mm) to prepare for the MPN (most probable number) method.
(§3) To measure algicidal activity of 10476—7 protein (SEQ ID NO:27), 50 μl of said protein (100 μg/ml) was added to the culture solutions of Cochlodinium polykrikoides, Thalassiosira sp., Heterosigma akashiwo, Skeletonema costatum, Alexandrium sp., Chaetoceros cuvisetus and Gymnodniium sp. which were prepared in Example 2. After 24 hr, said culture solutions were stained with 1% Lugol's iodine solution, and then the cell number was counted. Experimental groups with protease (experimental group 1 and 2) were compared with control group without protease in cell number and the degree of inhibition.
(§4) To check algicidal activity of proteins isolated Flavobacterium johnsoniae UW101 (ZP—01247095, SEQ ID NO: 4), Croceibacter atlanticus HTCC2559 (ZP—00951344, SEQ ID NO: 5), Leeuwenhoekiella blandensis MED217 (ZP—01059780, SEQ ID NO: 6) and Kordia algicida KAOT1—11562 (SEQ ID NO: 7), 50 μl of said protein (100 μg/ml) was added to the culture solutions of Cochlodinium polykrikoides, Thalassiosira sp., Heterosigma akashiwo, Skeletonema costatum, Alexandrium sp., Chaetoceros cuvisetus, and Gymnodium sp., which were prepared in Example 2. After 24 hr, said culture solutions were stained with 1% Lugol's iodine solution, and then the cell number was counted.
(§5) Experimental groups with protease (experimental group 1 and 2) were compared with control group without protease in cell number and the degree of inhibition.

[2] = tested on: Chaetoceros cuvisetus; conditions: for Algicidal activity (degree of inhibition): 50 μl of protein (100 μg/ml), after 24 hr
Description: as §1, §2, §3, §4, §5

[3] = tested on: Cochlodinium polykrikoides; conditions: Cochlodinium polykrikoides; for Algicidal activity (degree of inhibition): 50 μl of protein (100 μg/ml), after 24 hr
Description: as §1, §2, §3, §4, §5

[4] = tested on: Gymnodinium sp.; conditions: for Algicidal activity (degree of inhibition): 50 μl of protein (100 μg/ml), after 24 hr
Description: as §1, §2, §3, §4, §5

[5] = tested on: Heterosigma akashiwo; conditions: for Algicidal activity (degree of inhibition): 50 μl of protein (100 μg/ml), after 24 hr
Description: as §1, §2, §3, §4, §5

[6] = tested on: Thalassiosira sp.; conditions: for Algicidal activity (degree of inhibition): 50 μl of protein (100 μg/ml), after 24 hr
Description: as §1, §2, §3, §4, §5

[7] = tested on: Skeletonema costatum; conditions: for Algicidal activity (degree of inhibition): 50 μl of protein (100 μg/ml), after 24 hr
Description: as §1, §2, §3, §4, §5

| Molecule | Algicidal activity (degree of inhibition) [1] | Algicidal activity (degree of inhibition) [2] | Algicidal activity (degree of inhibition) [3] | Algicidal activity (degree of inhibition) [4] | Algicidal activity (degree of inhibition) [5] | Algicidal activity (degree of inhibition) [6] | Algicidal activity (degree of inhibition) [7] | Algicidal activity (in words) [1] | Algicidal activity (in words) [2] | Algicidal activity (in words) [3] | Algicidal activity (in words) [4] | Algicidal activity (in words) [5] | Algicidal activity (in words) [7] | Algicidal activity (in words) [6] |
| --- | --- | --- | --- | --- | --- | --- | --- | --- | --- | --- | --- | --- | --- | --- |
| CRO: protein of Croceibacter atlanticus HTCC2559 with homology to KAOT1—10476 (protein, listed as Croceibacter atlanticus, Croceibacter atlanticus HTCC2559 (ZP_00951344)) MVFVSCEKDNDTNNAEVADTNEVTTGSLETLGVNTDLTPTNLDQATLDLIASKHLSPIGAQEELRYLPDGTSEKAIRIEGDIVMTKAELEELEFNGYSNENAQYSTNALVSPQTITIIGYTGGSQALTSSEQTALQWAVANYNRLNLNINFSLTFGTNYQNKDMVVYNNTVNNPSGAGGSAGFPSGGNPHKFVQIYGLSNYNTNVIEHVITHEIGHSVGFRHTDYFSRQSCGQNTNEGTAGVGANHIPGTPTGYDSTSIMLACFSSGEDGEFNSNDITALNYLY | ++++ (++++ means >75% the degree of inhibition) | ++++ (++++ means >75% the degree of inhibition) | ++++ (++++ means >75% the degree of inhibition) | ++++ (++++ means >75% the degree of inhibition) | ++++ (++++ means >75% the degree of inhibition) | ++++ (++++ means >75% the degree of inhibition) |  |  |  |  |  |  |  |  |
| FJ: protein of Flavobacterium johnsoniae UW101 with homology to KAOT1—10476 (protein, listed as Flavobacterium johnsoniae, Flavobacterium johnsoniae UW101 (ZP_01247095)) MKKIKSILILSFTALVLLSCNKEDETVSSGQESLKVTPEVLEKLKSLSLNTSDVQVIQNTSLEGAVEDAFLVEGDIIITQAQLNKMDLHGGITTEQYRTTNLVSAPRTIKVVGLSGTGTTALTTNMRNGLQAAINRYNNLGLSINFTLTFSSSTSGANIVVRRQTGSAGGVAGFPSGGNPYNSVTLYSGLDSYSTNVNAHVAAHEIGHCIGLRHTDWFSRQSCGQNSNEGTAGVGAILIPGTPSGYDATSYMRACFGSNETGAFNANDITALNYLY | ++++ (++++ means >75% the degree of inhibition) | ++++ (++++ means >75% the degree of inhibition) | ++++ (++++ means >75% the degree of inhibition) | ++++ (++++ means >75% the degree of inhibition) | ++++ (++++ means >75% the degree of inhibition) | ++++ (++++ means >75% the degree of inhibition) | ++ (++ means 25-50%) |  |  |  |  |  |  |  |
| KAOT1_10476: metallo protease of Kordia algicida OT1: signal peptide (1-27), processing peptide (28-98), mature region (99-278) (protein, listed as Kordia algicida, KAOT1_10476 of Kordia algicida OT-1) MKKIKNLTFALALGLGITMVSCSKDTAVVDEEQDTAIGIPQDVLQKAQSLHFNTFDMQEASFEKPNGKIEEGYMMEGDIFFTRDQLMNMELGGDITSKQYRTNNLVSPGVITIIGYTGNNSNGLTTKMQTGLRWAVDNYNALNLSISFQLTFGTDYQNKDMVVYQVQGGAGGSAGFPSGGNPYKWVKINSGMAPYSNNVHEHVIGHEIGHSIGFRHSDYFSRQSCGQNSNEGSAGVGAIHIPGTPTGWDPTSLMNACFSSSEDGEFNGNDITALNFLY | ++++ (++++ means >75% the degree of inhibition) | ++++ (++++ means >75% the degree of inhibition) | ++++ (++++ means >75% the degree of inhibition) | ++++ (++++ means >75% the degree of inhibition) | ++++ (++++ means >75% the degree of inhibition) | ++++ (++++ means >75% the degree of inhibition) | + (+ means <25%) | showed algicidal activity | showed algicidal activity | cell growth was inhibited effectively | showed algicidal activity | showed algicidal activity | showed algicidal activity | showed algicidal activity |
